From patent US20130058911 come the findings set out here.

The target in the data set is metmyoglobin.
metmyoglobin, sequence (P68082 2-154): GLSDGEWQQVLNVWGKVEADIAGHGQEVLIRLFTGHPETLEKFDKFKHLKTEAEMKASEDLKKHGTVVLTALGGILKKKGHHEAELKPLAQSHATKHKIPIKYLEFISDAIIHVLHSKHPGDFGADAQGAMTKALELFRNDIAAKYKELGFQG

B1: recombinant malate dehydrogenase (MDH) of Bacillus subtilis with C-terminal 6x His-tag (protein)
chain: MGNTRKKVSVIGAGFTGATTAFLIAQKELADVVLVDIPQLENPTKGKALDMLEASPVQGFDAKITGTSNYEDTAGSDIVVITAGIARKPGMSRDDLVSTNEKIMRSVTQEIVKYSPDSIIVVLTNPVDAMTYAVYKESGFPKERVIGQSGVLDTARFRTFVAEELNLSVKDVTGFVLGGHGDDMVPLVRYSYAGGIPLETLIPKERIDAIVERTRKGGGEIVNLLGNGSAYYAPAASLTEMVEAILKDQRRVLPTIAYLEGEYGYEGIYLGVPTIVGGNGLEQIIELELTDYERAQLNKSVESVKNVMKVLSHHHHHH
Turning to B1, the “metmyoglobin reduction activity (change in A406 with NADH)” value is “the activity of MDH was not found”.

B2: recombinant dihydrolipoyl dehydrogenase (DLD) with His tag (protein)
chain: MVVGDFPIETDTLVIGAGPGGYVAAIRAAQLGQKVTVVEKATLGGVCLNVGCIPSKALINAGHRYENAKHSDDMGITAENVTVDFTKVQEWKASVVNKLTGGVAGLLKGNKVDVVKGEAYFVDSNSVRVMDENSAQTYTFKNAIIATGSRPIELPNFKYSERVLNSTGALALKEIPKKLVVIGGGYIGTELGTAYANFGTELVILEGGDEILPGFEKQMSSLVTRRLKKKGNVEIHTNAMAKGVEERPDGVTVTFEVKGEEKTVDADYVLITVGRRPNTDELGLEQVGIEMTDRGIVKTDKQCRTNVPNIYAIGDIIEGPPLAHKASYEGKIAAEAIAGEPAEIDYLGIPAVVFSEPELASVGYTEAQAKEEGLDIVAAKFPFAANGRALSLNETDGFMKLITRKEDGLVIGAQIAGASASDMISELSLAIEGGMTAEDIAMTIHAHPTLGEITMEAAEVAIGSPIHIVKHHHHHH
As for B2, the “metmyoglobin reduction activity (change in A406 with NADH)” value is recorded as “Both of them showed 10 times or more higher metmyoglobin reduction activity than the empty vector”.

B3: recombinant putative NAD(P)H nitroreductase (yodC) of Bacillus subtilis with C-terminal 6x His-tag (protein)
chain: MTNTLDVLKARASVKEYDTNAPISKEELTELLDLATKAPSAWNLQHWHFTVFHSDESKAELLPVAYNQKQIVESSAVVAILGDLKANENGEEVYAELASQGYITDEIKQTLLGQINGAYQSEQFARDSAFLNASLAAMQLMIAAKAKGYDTCAIGGFNKEQFQKQFDISERYVPVMLISIGKAVKPAHQSNRLPLSKVSTWLHHHHHH
Take B3: the “metmyoglobin reduction activity (change in A406 with NADH)” value is listed as “the activity of yodC was confirmed”; the “reactivity for myoglobin (relative to DLD)” value is “In comparison with DLD, yodC showed about 2.6 times and 22 times higher reactivity for potassium ferricyanide and myoglobin, respectively”.

B4: recombinant dihydrolipoyl dehydrogenase (DLD) without His tag (protein)
chain: MVVGDFPIETDTLVIGAGPGGYVAAIRAAQLGQKVTVVEKATLGGVCLNVGCIPSKALINAGHRYENAKHSDDMGITAENVTVDFTKVQEWKASVVNKLTGGVAGLLKGNKVDVVKGEAYFVDSNSVRVMDENSAQTYTFKNAIIATGSRPIELPNFKYSERVLNSTGALALKEIPKKLVVIGGGYIGTELGTAYANFGTELVILEGGDEILPGFEKQMSSLVTRRLKKKGNVEIHTNAMAKGVEERPDGVTVTFEVKGEEKTVDADYVLITVGRRPNTDELGLEQVGIEMTDRGIVKTDKQCRTNVPNIYAIGDIIEGPPLAHKASYEGKIAAEAIAGEPAEIDYLGIPAVVFSEPELASVGYTEAQAKEEGLDIVAAKFPFAANGRALSLNETDGFMKLITRKEDGLVIGAQIAGASASDMISELSLAIEGGMTAEDIAMTIHAHPTLGEITMEAAEVAIGSPIHIVK
For the protein B4, the “metmyoglobin reduction activity (change in A406 with NADH)” value was “Both of them showed 10 times or more higher metmyoglobin reduction activity than the empty vector”.
